From patent US20110201024A1 come the findings set out here.

Some results are limits rather than exact numbers.

This test deals with hRLuc-connector-DhaA.H272F-Flag fusion protein with covalently bound biotin-C18H32O4- (after treatment with biotin-C18H32O4-Cl) (Renilla; Rhodococcus rhodochrous) (UniProt P0A3G2). As to the kind of experiment: capture on streptavidin-coated 96 well plate after treatment with biotin-C18H32O4-Cl, read as luciferase activity.

Substance “streptavidin (SA), coated on 96 well plates (Pierce) or on MagnaBind beads (Pierce #21344) (from UniProt P22629 37-163)” returned an efficiency of capturing (percent of Renilla luciferase activity added to the plate) greater than 50%.
